Holding throughout (test): EMSA
Details in all cases: EMSA: 0.25 pmol 3'-biotin DNA, 25°C 2 h, LightShift Chemiluminescent EMSA kit buffer (composition and pH not stated), 6% DNA retardation gel, 0.5x TBE
In general terms: Mobility shift assays separate free from complexed probe on a gel.

Data set [1] addresses T1, XisF5 (Pseudomonas aeruginosa PA14) (UniProt A0A0H2Z817).
T1 sequence: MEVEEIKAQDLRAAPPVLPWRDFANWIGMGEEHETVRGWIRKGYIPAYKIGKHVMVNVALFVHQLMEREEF

Data set [2] has as its system T2, XisF4 (Pseudomonas aeruginosa PAO1), ORF:74e9b1d3.
T2 sequence: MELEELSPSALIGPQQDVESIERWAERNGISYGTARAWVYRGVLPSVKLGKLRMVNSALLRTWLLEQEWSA

The subject of data set [3] is T3, Pf4r (Pseudomonas aeruginosa PAO1), ORF:4ff4b857.
T3 sequence: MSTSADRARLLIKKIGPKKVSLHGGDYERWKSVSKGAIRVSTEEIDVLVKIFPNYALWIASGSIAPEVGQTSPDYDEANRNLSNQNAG

Consider “CATTTGTCGCCGGAGTACCTGCGGGACGCTATTCGACTCAACCCGCTGGCGGATTTCGACAGTTCTTCGACACTTGTCGAGACGTCCTAGATTTTTCCTTTGCATATCAATAAGTTATGAGCGCTGATTCGGCTTTGCCGA (double strand) [Pf5 attL]”, for which the binding entry in data set [1] is recorded as “binds”.

“TCGATTGGGAATTCCTCGCCCCGGTGGCGATGGGCTGGGCGCTGCATCACTGGTGGACGGTGATGACGGCGCTAGCGGCGGTAGGGGTGCCGCCATGAGGGGCGGGCCGCGCCGCCGGCCGGGAGCGCAAGGCATGAGCGATAGGCCGAAGGCGCGGCCGACGCCCCTGTAACACGTCAGATAAGCCACCTATTGCGGTTTCAATTCGTACCAATTTGGATCGTTAAAG (double strand) [P4 (PA0727 promoter)]”: in data set [2], the binding result is listed as “binds”.

As to “CGCGGTAAAGCCTGAAAACAGAAAGCCCCTGGCACTGGTTGGTGTCAGGGGCTTTTGCATTGGGATCTGGAGCGGGCGAAGGGAATCGAACCCTCGTCATGAGCTTGGGAAGCTCAGGTAATGCCATTATACGACGCCCGCTCGGACGGCTTTTGCGGCCAGGGCGCCTTTTTACCAGATGCGCGGC (double strand) [Pf4 attB]”, the binding entry in data set [2] is “no binding”.

In the case of “TTCGCCGGGGTGATCGACACCAGCGCGGTGGAATCGGCGATCACCGATGGCCAGGGCGATATGAAGGCCATTGGCGGCTACATCGTCGGCGCCCTGGTGATCCTGGCCGTTGCCGGCCTGATCTACAGCATGTTGCGCAAGGCGTAACGGGTGCTCTGGTCGGTGTGGTTGGGGGCGTTCTTCGCCGGCGCCTTCATCACCGGGTACCGGACCGGCGAATTCTTCTAACCGAACAGACCGAGGCGGAAGCCCCCTCCGGAGTTTCCGGCAGGGGGCTTTTTTGTGTGGGGTCTTACG (double strand) [P3 (PA0724 promoter)]”, the binding result in data set [2] is recorded as “no binding”.

On to “TGCGCTCCGCCCACCGTTCGATGGACTCCACATCCTGTTGCGGCCCTATCAGGGCACTGGGGCTAAGCTCTTCCAGTTCCATGCTCATTCCGTCACTATTCGTGGCATTAGCCATACGCAGCTAGAGAAATAATTACCCTGGAGAAATTATTTCCCCAAAGCCACGTCAGGGCAACTATTTCCCCGGAATAAATTTCTATATGAGCACGTCAGCCGATAGAGCAAGACTATT (double strand) [P1 (xisF4-pf4r intergenic region)]”, for which the binding result in data set [3] and in data set [2] was “binds” each time.

For the origin of these results see paper PMC7379572.
